Experimental findings from patent US20200102387A1 (CELGENE, published 2020) are described below.

Like-named read-outs stand apart in the source and are kept apart here.

What all share (test): BLI Octet, antigen-Fc on biosensor
(Biolayer interferometry detects binding as a change in optical thickness at a sensor tip.)

The target in assay [1] is T1, human SIRPα v2-Fc (SIRPα2 extracellular domain fused to human IGHG1_Fc) (human, UniProt P78324 31-373; P0DOX5 223-449 = IgG part).
T1 construct: as m38; also called V2 (e.g. SIRPα2); SIRPα V2:ESE

The target of assay [2] is T2, human SIRPγ-Fc (human).
T2 construct: a signal peptide may be part of the entry

Assay [3] concerns the target T3, human SIRPβ-Fc (human).
T3 construct: a signal peptide may be part of the entry

Assay [4] concerns the target T4, human SIRPα v6-Fc (SIRPα6 extracellular domain fused to human IGHG1_Fc) (human, UniProt P78324 31-373; P0DOX5 223-449 = IgG part).
T4 construct: as m38; also called V6 (e.g. SIRPα6)

Assay [5] concerns the target T5, mouse SIRPα-Fc (mouse).
T5 construct: a signal peptide may be part of the entry; also called Ms; Ms SIRPα-Fc

In assay [6] the target is T6, human SIRPα v1-Fc (SIRPα1 extracellular domain fused to human IGHG1_Fc) (human, UniProt P78324 31-373; P0DOX5 223-449 = IgG part).
T6 construct: also called V1 (e.g. SIRPα1); SIRPα V1: DLN

Assay [7] has as its target T5, mouse SIRPα-Fc. This is another data set of the same source.
For assay [8], the target named is T7, cyno SIRPα-Fc (cynomolgus).
T7 construct: a signal peptide may be part of the entry

In assay [9] the target is T8, human SIRPα v5-Fc (SIRPα5 extracellular domain fused to human IGHG1_Fc) (human, UniProt P78324 31-373; P0DOX5 223-449 = IgG part).
T8 construct: as m38; also called V5 (e.g. SIRPα5)

Assay [10] concerns the target T9, human SIRPα v3-Fc (SIRPα3 extracellular domain fused to human IGHG1_Fc) (human, UniProt P78324 31-373; P0DOX5 223-449 = IgG part).
T9 construct: as m38; also called V3 (e.g. SIRPα3)
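Wherever koff is given: antigen captured on the biosensor tip and then immersed in solutions of the test antibodies, which act as the analyte.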
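Wherever kon is given: antigen captured on the biosensor tip and then immersed in solutions of the test antibodies, which act as the analyte.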
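Wherever result is given: antigen captured on the biosensor tip and then immersed in solutions of the test antibodies, which act as the analyte.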

T5 sequence (chain, as listed by the source limits assumed): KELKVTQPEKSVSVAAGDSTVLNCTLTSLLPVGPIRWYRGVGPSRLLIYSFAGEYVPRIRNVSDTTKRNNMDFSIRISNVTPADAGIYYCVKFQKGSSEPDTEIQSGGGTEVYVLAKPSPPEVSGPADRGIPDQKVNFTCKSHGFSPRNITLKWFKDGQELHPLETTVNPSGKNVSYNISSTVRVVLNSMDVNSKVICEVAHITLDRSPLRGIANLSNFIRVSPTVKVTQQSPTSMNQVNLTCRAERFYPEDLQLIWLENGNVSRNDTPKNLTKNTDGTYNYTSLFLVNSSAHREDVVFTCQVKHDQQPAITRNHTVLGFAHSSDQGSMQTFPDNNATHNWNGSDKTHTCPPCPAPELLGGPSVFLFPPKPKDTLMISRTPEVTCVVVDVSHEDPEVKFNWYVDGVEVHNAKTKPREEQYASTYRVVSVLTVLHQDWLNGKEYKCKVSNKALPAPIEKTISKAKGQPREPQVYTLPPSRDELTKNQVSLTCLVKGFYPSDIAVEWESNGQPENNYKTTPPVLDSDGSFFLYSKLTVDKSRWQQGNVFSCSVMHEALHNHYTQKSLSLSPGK

B1: SIRPAB-1 (antibody, human IgG1, kappa, V domains shown)
VH: QVQLQESGPGLVKPSQTLSLTCTVSGGSISSGGYYWSWIRQHPGKGLEWIGSIYYSGSTYYNPSLKSRVTISVDTSKNQFSLKLSSVTAADTAVYYCAREGYHSGMDVWGQGTTVTVSS
VL: DIQMTQSPSSLSASVGDRVTITCQASQDISNYLNWYQQKPGKAPKLLIYDASNLATGVPSRFSGSGSGTDFTFTISSLQPEDIATYYCQQFAYLPWTFGGGTKVEIKR
As a reminder, the Kd is the concentration at which binding is half-saturated. On to B1, for which the Kd in [1] was 44.2 nM; in assay [2], 1.43 nM; in [3] it was 4.61 nM; in assay [4] it was 54.9 nM.

B2: SIRPAB-6 (antibody, human IgG1, kappa, V domains shown)
VH: QVQLQESGPGLVKPSQTLSLTCTVSGGSISSGGYYWSWIRQHPGKGLEWIGYIYYSGSTYYNPSLKSRVTISVDTSKNQFSLKLSSVTAADTAVYYCAREGLDGSYGSSAWGQGTLVTVSS
VL: DIQLTQSPSSLSASVGDRVTITCQASQDISNYLNWYQQKPGKAPKLLIYDASNLETGVPSRFSGSGSGTDFTFTISSLQPEDIATYYCQQFAYLPYTFGGGTKVEIKR
As to B2, the binding result in assay [1], in [4] and in assay [5] was “no binding” in each case. This molecule returned a dissociation constant Kd in [2] of 8.36 nM.

B3: SIRPAB-5 (antibody, human IgG1, kappa, V domains shown)
VH: QVQLQESGPGLVKPSQTLSLTCTVSGGSISSGPAYWSWIRQHPGKGLEWIGTIYYSGSTFYNPSLKSRVTISVDTSKNQFSLKLSSVTAADTAVYYCAREGYHSGMDVWGQGTTVTVSS
VL: DIQMTQSPSSLSASVGDRVTITCQASQDISNYLNWYQQKPGKAPKLLIYDASNLATGVPSRFSGSGSGTDFTFTISSLQPEDIATYYCQQFAYLPWTFGGGTKVEIKR
As to B3, the Kd in assay [1] stood at 27.5 nM; in assay [2], 0.154 nM; in assay [3], 0.15 nM; in assay [6] it was 0.165 nM; in [5], 7.51 nM.

B4: SIRPAB-18 (antibody, human IgG1, kappa, V domains shown)
VH: QVQLQESGPGLVKPSQTLSLTCTVSGGSISSGGYYWSWIRQHPGKGLEWIGAIYYSGPIYYNPSLKSRVTISVDTSKNQFSLKLSSVTAADTAVYYCSKEGYHSGMDVWGQGTTVTVSS
VL: DIQMTQSPSSLSASVGDRVTITCQASQDISNYLNWYQQKPGKAPKLLIYDASNLATGVPSRFSGSGSGTDFTFTISSLQPEDIATYYCQQFAYLPWTFGGGTKVEIKR
Regarding B4, binding in assay [7] was put at a Kd of 2.2 nM.

B5: SIRPAB-2 (antibody, human IgG1, kappa, V domains shown)
VH: QVQLQESGPGLVKPSQTLSLTCTVSGGSISSGGDYWAWIRQHPGKGLEWIGYIYPSGFTYYNPSLKSRVTISVDTSKNQFSLKLSSVTAADTAVYYCAREGYHSGMDVWGQGTTVTVSS
VL: DIQMTQSPSSLSASVGDRVTITCQASQDISNYLNWYQQKPGKAPKLLIYDASNLATGVPSRFSGSGSGTDFTFTISSLQPEDIATYYCQQFAYLPWTFGGGTKVEIKR
On to B5, for which the Kd in [1] was 10.7 nM; in assay [2], 0.14 nM; in assay [3], 0.89 nM; in assay [8], 19.3 nM; in assay [4], 11.9 nM.

B6: SIRPAB-19 (antibody, human IgG1, kappa, V domains shown)
VH: QVQLQESGPGLVKPSQTLSLTCTVSGGSISSGGYYWSWIRQHPGKGLEWIGAIYYSGPIYYNPSLKSRVTISVDTSKNQFSLKLSSVTAADTAVYYCSKEGYHSGMDVWGQGTTVTVSS
VL: DIQMTQSPSSLSASVGDRVTITCQASDDISDYLNWYQQKPGKAPKLLIYDASNIEDGVPSRFSGSGSGTDFTFTISSLQPEDIATYYCQQFAYLPWTFGGGTKVEIKR
The molecule B6 displayed a dissociation constant Kd in [7] of 1.02 nM. This lies in the single-digit nanomolar range.

B7: SIRPAB-3 (antibody, human IgG1, kappa, V domains shown)
VH: QVQLQESGPGLVKPSQTLSLTCTVSGGSISSGGWYWQWIRQHPGKGLEWIGTIYYSGSTFYNPSLKSRVTISVDTSKNQFSLKLSSVTAADTAVYYCAREGYHSGMDVWGQGTTVTVSS
VL: DIQMTQSPSSLSASVGDRVTITCQASQDISNYLNWYQQKPGKAPKLLIYDASNLATGVPSRFSGSGSGTDFTFTISSLQPEDIATYYCQQFAYLPWTFGGGTKVEIKR
For the molecule B7, the equilibrium dissociation constant (Kd) in assay [2] turned out to be 0.118 nM; in assay [3] it was 0.22 nM; in assay [8], 7.95 nM; in assay [6] it was 0.2 nM; in [5] it was 12.6 nM.

B8: SIRPAB-20 (antibody, human IgG1, kappa, V domains shown)
VH: QVQLQESGPGLVKPSQTLSLTCTVSGGSISSGGYYWSWIRQHPGKGLEWIGAIYYSGPIYYNPSLKSRVTISVDTSKNQFSLKLSSVTAADTAVYYCSKEGYHSGMDVWGQGTTVTVSS
VL: DIQMTQSPSSLSASVGDRVTITCQASQDISDYLNWYQQKPGKAPKLLIYDADNLETGVPSRFSGSGSGTDFTFTISSLQPEDIATYYCQQFAYLPWTFGGGTKVEIKR
In [7], B8 yielded a dissociation constant Kd of 0.39 nM.

B9: SIRPAB-4 (antibody, human IgG1, kappa, V domains shown)
VH: QVQLQESGPGLVKPSQTLSLTCTVSGGSISSGSPYWSWIRQHPGKGLEWIGYIYASGFTYYNPSLKSRVTISVDTSKNQFSLKLSSVTAADTAVYYCAREGYHSGMDVWGQGTTVTVSS
VL: DIQMTQSPSSLSASVGDRVTITCQASQDISNYLNWYQQKPGKAPKLLIYDASNLATGVPSRFSGSGSGTDFTFTISSLQPEDIATYYCQQFAYLPWTFGGGTKVEIKR
For B9, the Kd in assay [1] worked out at 18.2 nM; in [2], 0.144 nM; in [3], 1 nM; in assay [8] it was 18 nM; in [6], 0.45 nM; in [5], 72.8 nM.

B10: SIRPAB-13 (antibody, human IgG1, kappa, V domains shown)
VH: QVQLVQSGAEVKKPGASVKVSCKASGYTFHGYGISWVRQAPGQGLEWMGWISAYSGETNYAQKLQGRVTMTTDTSTSTAYMELRSLRSDDTAVYYCAREAGSSWYDFDLWGRGTLVTVSS
VL: DIQMTQSPSSVSASVGDRVTITCRASQGISSWLAWYQQKPGKAPKLLIYAASNLQSGVPSRFSGSGSGTDFTLTISSLQPEDFATYYCQQGASFPITFGGGTKVEIKR
Usually koff stands for the first-order rate constant of dissociation. Lower therefore signals a long-lived complex. The term kon denotes the rate constant with which the complex forms. A high value points to faster complex formation. Consider B10, for which the Kd in assay [1] was 17.2 nM; in assay [2], 4.12 nM; in assay [3], 4.52 nM; in assay [8] it was 14.9 nM; in assay [9], 7.73 nM; in assay [6], 1.65 nM. The Kd turned out to be 0.83 nM in assay [10] and 2.71 nM in assay [4]. Moreover, the koff in assay [1] turned out to be 0.0172 s⁻¹; in [2] it was 0.00558 s⁻¹; in [3], 0.00544 s⁻¹; in [8], 0.0197 s⁻¹; in assay [9] it was 0.00892 s⁻¹; in assay [6] it was 0.00205 s⁻¹. For the same molecule, the koff in [10] was found to be 0.000965 s⁻¹; in assay [4], 0.00364 s⁻¹. The kon in assay [1] was determined as 1e+06 M⁻¹ s⁻¹; in [2], 1.35e+06 M⁻¹ s⁻¹; in assay [3], 1.21e+06 M⁻¹ s⁻¹; in [8] it was 1.32e+06 M⁻¹ s⁻¹; in [9], 1.16e+06 M⁻¹ s⁻¹; in [6], 1.24e+06 M⁻¹ s⁻¹. Besides, the on-rate constant (kon) in [10] was 1.17e+06 M⁻¹ s⁻¹; in assay [4], 1.35e+06 M⁻¹ s⁻¹. The binding result in assay [5] is given as “no binding”.
